Columns and labels:
Assay in all cases: competitive ELISA against the biotin-labeled SEQ ID NO: 2 peptide
[1] = target: T1, MMP13-undigested human type III collagen (human, UniProt P02461 154-1221)
T1 construct: also called non-digested collagen (type III)
T1 sequence (looked up): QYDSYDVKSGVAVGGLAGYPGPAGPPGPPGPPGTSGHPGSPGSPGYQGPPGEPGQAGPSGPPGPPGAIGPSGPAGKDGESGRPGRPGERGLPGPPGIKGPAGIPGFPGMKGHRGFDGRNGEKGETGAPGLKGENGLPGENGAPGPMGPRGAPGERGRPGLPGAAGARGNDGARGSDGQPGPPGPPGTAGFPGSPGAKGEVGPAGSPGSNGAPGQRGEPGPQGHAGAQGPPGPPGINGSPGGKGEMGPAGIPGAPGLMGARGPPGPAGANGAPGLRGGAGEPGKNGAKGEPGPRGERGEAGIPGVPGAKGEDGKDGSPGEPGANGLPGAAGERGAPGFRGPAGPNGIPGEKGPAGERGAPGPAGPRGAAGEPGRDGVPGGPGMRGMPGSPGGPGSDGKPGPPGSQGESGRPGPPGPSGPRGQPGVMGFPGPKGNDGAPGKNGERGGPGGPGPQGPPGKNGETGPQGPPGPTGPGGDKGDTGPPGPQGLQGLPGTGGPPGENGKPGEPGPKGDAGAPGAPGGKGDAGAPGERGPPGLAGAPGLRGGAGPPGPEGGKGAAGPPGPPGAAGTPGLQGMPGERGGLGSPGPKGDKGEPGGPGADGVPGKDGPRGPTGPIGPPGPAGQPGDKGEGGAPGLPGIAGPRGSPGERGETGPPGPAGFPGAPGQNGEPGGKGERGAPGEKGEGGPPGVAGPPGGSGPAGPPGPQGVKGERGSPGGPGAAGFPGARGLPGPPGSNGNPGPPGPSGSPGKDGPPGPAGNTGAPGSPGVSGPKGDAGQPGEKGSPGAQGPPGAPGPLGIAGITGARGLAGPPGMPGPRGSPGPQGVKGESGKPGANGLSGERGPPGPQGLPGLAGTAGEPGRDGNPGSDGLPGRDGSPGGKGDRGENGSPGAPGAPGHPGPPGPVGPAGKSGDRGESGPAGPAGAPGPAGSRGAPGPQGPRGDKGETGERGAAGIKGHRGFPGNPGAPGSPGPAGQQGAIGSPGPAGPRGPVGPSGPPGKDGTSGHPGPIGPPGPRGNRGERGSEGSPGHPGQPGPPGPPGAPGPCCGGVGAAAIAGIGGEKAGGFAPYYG
Description: (§1) To 10 μg/10 μl of a solution of human type I, type II, or type III collagen (Chondrex), 10 μl of 2 × enzyme reaction buffer (50 mM Tris buffer, pH 7.6, containing 0.3 M NaCl, 10 mM CaCl₂, and 0.005% Brij35) was added for neutralization. To the solution, 0.2 μg of activated human MMP13 (human Pro-MMP13 (Calbiochem), activated by incubation with 1 mM APMA at 37° C. for 2 hours), and the mixture was allowed to react overnight at 37° C. Subsequently, stop solution (EDTA, final concentration 5 mM) was added to prepare the natural type neoepitope solution.
(§2) To a 384-well microtiter plate (Nunc), 35 μl of Tris buffer (50 mM Tris-HCl, pH7.5) containing 0.35 μg of anti-mouse IgG-Fc antibody (Jackson Immuno Research) was added and incubated overnight at 4° C. for adsorption. Each well was washed once with 90 μl of washing solution (physiological saline containing 0.01% Tween20), and then 0.1 ml of Block Ace (Dainippon pharmaceuticals) was added. The plate was allowed to stand for 2 hours at room temperature for blocking (an anti-mouse IgG antibody-solid-phased plate). After each well was washed once with 90 μl of the washing solution, 10 μl of buffer A containing 6.4-250 nM of the natural type neoepitope solution was mixed with 10 μl of buffer A containing 1 ng/ml of the biotin-labeled neoepitope peptide (SEQ ID NO: 2) and 200 ng/ml of Streptavidin-HRP, and 10 μl of buffer A containing 15 ng/ml of the anti-neoepitope antibody (20A10). Then the mixture was allowed to react at 4° C. for 16 hours.
(§3) Subsequently, each well was washed three times with 90 μl of the washing solution, and 25 μl of TMB-Substrate Chromogen (DAKO) was added and incubated for 30 minutes at room temperature for color development, followed by the addition of 25 μl of 0.05 M sulfuric acid to terminate the reaction. Then, the absorbance at 450 nm was measured.

[2] = target: T2, MMP13-undigested human type II collagen (human, UniProt P02458 182-1241, limits assumed)
T2 construct: Triple helix of three chains; also called native type II collagen; non-digested collagen (type II)
T2 sequence (P02458 182-1241 limits assumed): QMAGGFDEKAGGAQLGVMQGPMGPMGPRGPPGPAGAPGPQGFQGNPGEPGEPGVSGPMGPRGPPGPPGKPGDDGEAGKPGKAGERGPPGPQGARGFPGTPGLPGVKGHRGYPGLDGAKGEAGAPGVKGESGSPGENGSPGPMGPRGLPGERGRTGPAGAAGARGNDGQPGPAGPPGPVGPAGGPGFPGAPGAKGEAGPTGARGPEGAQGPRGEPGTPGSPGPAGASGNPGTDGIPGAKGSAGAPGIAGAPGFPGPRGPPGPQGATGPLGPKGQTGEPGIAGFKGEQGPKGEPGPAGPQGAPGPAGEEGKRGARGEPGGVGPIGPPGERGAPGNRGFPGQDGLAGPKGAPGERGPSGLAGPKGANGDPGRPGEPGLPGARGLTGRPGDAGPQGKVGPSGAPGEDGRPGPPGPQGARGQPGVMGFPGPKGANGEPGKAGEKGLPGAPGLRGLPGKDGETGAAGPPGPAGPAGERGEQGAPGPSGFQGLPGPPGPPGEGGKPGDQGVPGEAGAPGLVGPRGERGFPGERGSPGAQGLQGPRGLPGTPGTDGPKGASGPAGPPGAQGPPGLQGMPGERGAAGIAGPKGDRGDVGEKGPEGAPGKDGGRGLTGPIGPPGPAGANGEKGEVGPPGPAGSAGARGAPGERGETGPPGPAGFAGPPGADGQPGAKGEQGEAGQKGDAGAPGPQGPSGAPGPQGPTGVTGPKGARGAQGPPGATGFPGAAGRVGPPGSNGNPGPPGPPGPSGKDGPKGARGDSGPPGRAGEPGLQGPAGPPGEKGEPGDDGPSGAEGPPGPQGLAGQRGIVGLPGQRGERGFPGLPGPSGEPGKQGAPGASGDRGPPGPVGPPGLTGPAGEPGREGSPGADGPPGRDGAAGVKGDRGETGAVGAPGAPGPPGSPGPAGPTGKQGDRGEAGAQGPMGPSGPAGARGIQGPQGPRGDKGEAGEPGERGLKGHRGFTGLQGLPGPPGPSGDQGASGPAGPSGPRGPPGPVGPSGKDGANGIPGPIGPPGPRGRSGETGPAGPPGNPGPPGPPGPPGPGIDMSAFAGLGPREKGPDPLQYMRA
Description: as §1, §2, §3

[3] = target: T3, MMP13-undigested human type I collagen (human, UniProt P02452 162-1218; P08123 80-1119)
T3 construct: The chain composition comes from general knowledge; also called non-digested collagen (type I)
T3 sequence (P02452 162-1218, chain 1 of 2): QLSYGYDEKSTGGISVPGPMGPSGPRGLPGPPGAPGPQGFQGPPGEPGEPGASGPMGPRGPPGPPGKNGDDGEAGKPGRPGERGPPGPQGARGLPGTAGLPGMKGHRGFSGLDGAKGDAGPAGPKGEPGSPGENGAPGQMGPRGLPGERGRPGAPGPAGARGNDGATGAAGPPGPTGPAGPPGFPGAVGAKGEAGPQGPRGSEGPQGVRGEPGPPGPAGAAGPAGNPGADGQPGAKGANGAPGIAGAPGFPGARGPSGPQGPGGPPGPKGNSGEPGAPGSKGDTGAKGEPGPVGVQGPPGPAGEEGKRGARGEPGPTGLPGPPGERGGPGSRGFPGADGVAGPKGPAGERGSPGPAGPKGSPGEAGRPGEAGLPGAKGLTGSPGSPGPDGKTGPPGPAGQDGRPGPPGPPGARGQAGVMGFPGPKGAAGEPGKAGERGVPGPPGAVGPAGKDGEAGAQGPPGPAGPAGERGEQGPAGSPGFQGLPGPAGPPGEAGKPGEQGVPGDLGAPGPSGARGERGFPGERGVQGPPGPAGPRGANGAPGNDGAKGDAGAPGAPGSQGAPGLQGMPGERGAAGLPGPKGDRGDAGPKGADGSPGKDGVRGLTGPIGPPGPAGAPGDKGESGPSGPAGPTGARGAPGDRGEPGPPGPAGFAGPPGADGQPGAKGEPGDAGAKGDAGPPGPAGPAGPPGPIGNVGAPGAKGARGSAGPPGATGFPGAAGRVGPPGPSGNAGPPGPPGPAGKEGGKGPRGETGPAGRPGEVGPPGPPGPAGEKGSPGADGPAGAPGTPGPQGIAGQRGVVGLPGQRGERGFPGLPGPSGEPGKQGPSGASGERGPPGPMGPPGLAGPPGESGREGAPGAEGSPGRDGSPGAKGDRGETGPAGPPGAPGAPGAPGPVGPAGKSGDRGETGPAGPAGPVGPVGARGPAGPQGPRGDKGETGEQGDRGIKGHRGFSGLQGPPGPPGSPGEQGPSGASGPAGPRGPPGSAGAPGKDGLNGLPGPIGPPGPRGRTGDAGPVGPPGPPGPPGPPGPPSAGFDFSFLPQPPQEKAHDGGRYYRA
T3 sequence (P08123 80-1119, chain 2 of 2): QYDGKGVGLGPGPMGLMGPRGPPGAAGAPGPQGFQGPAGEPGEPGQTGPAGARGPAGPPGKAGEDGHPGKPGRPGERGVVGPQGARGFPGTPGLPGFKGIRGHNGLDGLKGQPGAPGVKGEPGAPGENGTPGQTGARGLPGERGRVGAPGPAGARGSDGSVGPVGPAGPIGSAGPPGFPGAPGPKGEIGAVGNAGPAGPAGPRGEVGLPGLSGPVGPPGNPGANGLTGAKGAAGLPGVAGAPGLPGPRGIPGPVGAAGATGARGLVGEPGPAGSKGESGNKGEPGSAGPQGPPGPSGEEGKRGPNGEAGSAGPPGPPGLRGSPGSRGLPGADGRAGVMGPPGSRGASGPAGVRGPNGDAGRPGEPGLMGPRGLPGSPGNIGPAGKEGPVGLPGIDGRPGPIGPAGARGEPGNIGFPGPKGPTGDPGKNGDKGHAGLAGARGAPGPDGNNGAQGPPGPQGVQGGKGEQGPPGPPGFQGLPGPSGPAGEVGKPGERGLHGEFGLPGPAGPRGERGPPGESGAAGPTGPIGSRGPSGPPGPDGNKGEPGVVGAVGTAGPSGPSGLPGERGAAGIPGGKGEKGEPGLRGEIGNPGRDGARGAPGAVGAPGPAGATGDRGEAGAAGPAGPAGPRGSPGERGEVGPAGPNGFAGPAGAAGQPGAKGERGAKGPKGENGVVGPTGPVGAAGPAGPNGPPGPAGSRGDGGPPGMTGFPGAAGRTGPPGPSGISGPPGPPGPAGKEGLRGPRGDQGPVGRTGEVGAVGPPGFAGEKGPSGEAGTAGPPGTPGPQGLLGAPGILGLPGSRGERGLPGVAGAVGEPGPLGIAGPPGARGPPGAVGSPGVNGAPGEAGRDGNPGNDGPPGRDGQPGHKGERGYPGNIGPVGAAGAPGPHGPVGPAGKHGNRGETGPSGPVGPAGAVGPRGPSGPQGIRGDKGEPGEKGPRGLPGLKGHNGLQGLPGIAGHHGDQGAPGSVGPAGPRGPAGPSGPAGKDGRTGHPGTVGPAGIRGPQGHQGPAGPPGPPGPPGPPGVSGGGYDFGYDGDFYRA
Description: as §1, §2, §3

Measured: binding result

B1: anti-neoepitope antibody 20A10 (antibody, IgG1, V domains shown)
VH: QIQLVQSGPELKEPGETVRISCKASGYTFTKYGINWVKQAPGKGLEWMAWINTYSGMTTYADDFKGRFAFSLETSANTAYLQINHLKNDDTATYFCARSLGYDYGGFAYWGQGTLVTVSA
VL: DVLLTQTPLSLPVSLGDQAFISCRSGQTLVHDNENTYFHWYLQKPGQSPKLLIYKISNRFSGVPDRFSGSGSGTDFTLKISRVEPEDLGIYFCSQNTHVPFTFGSGTKLEIKR
notes: also called HRP-labeled 20A10
no binding: all assays above
